Reference: US20230272055A1 (Incyte, published 2023)

Biological target: T1, Recombinant MBP-mutCALR Type 1 fusion protein (human)
T1 construct: custom made at Cepter; also called recombinant mutCALR protein
Experiment: SPR, IgG captured, 1:1 fit, Exp. 2
Protocol: Experiment 2: Recombinant MBP-mutCALR Type 1 fusion protein was custom made at Cepter (cepterbiopartners.com). Data for the interaction of antibodies with recombinant mutCALR protein were collected at 25° C. on a Biacore 8K instrument (Cytiva, Marlborough, Mass.), and all reagents were obtained from Cytiva unless otherwise specified. The experiments were conducted using Tris-buffered saline (pH 7.2), 0.005% Surfactant P20, 1 mM CaCl₂) as running buffer. To prepare the capture surfaces, anti-human IgG (Fc) antibodies (Product #29234600) was amine-coupled onto a CM4 chip (Product #BR100534) under standard conditions using an Amine Coupling Kit (Product #BR100050). […] The kinetics parameters were obtained by applying 1:1 binding model to fit the data from multiple-cycle injection experiments using Biacore Insight Evaluation software.

Binder	Kd [nM]	koff [s⁻¹]	kon [M⁻¹ s⁻¹]
anti-mutCALR antibody clone 55 (antibody, human IgG1, lambda, N297A, human IgG1 N297A variant of clone 6; also called antibody 55) heavy: not shown light: QSALTQPASVSGSPGQSITISCTGTSSDVGGYNYVSWYQQHPGKAPKLMIYEVSNRPSGVSNRFSGSNSGNTATLTINRVEAGDEADYYCQVWDSSNDLLIFGGGTKLTVLGQPKAAPSVTLFPPSSEELQANKATLVCLISDFYPGAVTVAWKADSSPVKAGVETTTPSKQSNNKYAASSYLSLTPEQWKSHRSYSCQVTHEGSTVEKTVAPTECS	0.171	0.000911	5.32e+06
anti-mutCALR antibody clone 62 (antibody, human IgG1, lambda, N297A, V domains shown, human IgG1 N297A variant of clone 6) VH: EVQLVQSGAEVKKPGASVKVSCKVSGYTLTELSMQWVRQAPGKGLEWMGGFDPDSGETMYAEKFQGRLTVTEDTSTDTVYMELSSLRSEDTAVYFCATSPGYDFFDYWGQGTLVTVSS VL: QSALTQPASVSGSPGQSITISCTGTSSDVGGYNYVSWYQQHPGKAPKLMIYEVSNRPSGVSNRFSGSNSGNTATLTINRVEAGDEADYYCQVWDSSNDLLIFGGGTKLTVLG	1.76	0.00621	3.52e+06
anti-mutCALR antibody clone 56 (antibody, human IgG1, lambda, N297A, V domains shown, human IgG1 N297A variant of clone 6) VH: EVQLVQSGAEVKKPGASVKVSCKVSGYTLTELSMQWVRQAPGKGLEWMGGFDPDAGETMYAEKFQGRLTVTEDTSTDTVYMELRSLTSEDTALYFCATSPGYDFFDYWGQGTLVTVSS VL: QSALTQPASVSGSPGQSITISCTGTSSDVGGYNYVSWYQQHPGKAPKLMIYEVSNRPSGVSNRFSGSNSGNTATLTINRVEAGDEADYYCQVWDSSNDLLIFGGGTKLTVLG	3.08	0.00212	690000
anti-mutCALR antibody clone 59 (antibody, human IgG1, lambda, N297A, V domains shown, human IgG1 N297A variant of clone 6) VH: EVQLVQSGAEVKKPGASVKVSCKVSGYTLTELSMQWVRQAPGKGLEWMGGFDPDDAETMYAEKFQGRLTVTEDTSTDTVYMELRSLTSEDTALYFCATSPGYDFFDYWGQGTLVTVSS VL: QSALTQPASVSGSPGQSITISCTGTSSDVGGYNYVSWYQQHPGKAPKLMIYEVSNRPSGVSNRFSGSNSGNTATLTINRVEAGDEADYYCQVWDSSNDLLIFGGGTKLTVLG	1.44	0.00136	945000
anti-mutCALR antibody clone 57 (antibody, human IgG1, lambda, N297A, V domains shown, human IgG1 N297A variant of clone 6) VH: EVQLVQSGAEVKKPGASVKVSCKVSGYTLTELSMQWVRQAPGKGLEWMGGFDPDSGETMYAEKFQGRLTVTEDTSTDTVYMELRSLTSEDTALYFCATSPGYDFFDYWGQGTLVTVSS VL: QSALTQPASVSGSPGQSITISCTGTSSDVGGYNYVSWYQQHPGKAPKLMIYEVSNRPSGVSNRFSGSNSGNTATLTINRVEAGDEADYYCQVWDSSNDLLIFGGGTKLTVLG	0.637	0.0039	6.12e+06
anti-mutCALR antibody clone 58 (antibody, human IgG1, lambda, N297A, V domains shown, human IgG1 N297A variant of clone 6) VH: EVQLVQSGAEVKKPGASVKVSCKVSGYTLTELSMQWVRQAPGKGLEWMGGFDPDEGETMYAEKFQGRLTVTEDTSTDTVYMELRSLTSEDTALYFCATSPGYDFFDYWGQGTLVTVSS VL: QSALTQPASVSGSPGQSITISCTGTSSDVGGYNYVSWYQQHPGKAPKLMIYEVSNRPSGVSNRFSGSNSGNTATLTINRVEAGDEADYYCQVWDSSNDLLIFGGGTKLTVLG	0.343	0.00232	6.76e+06
anti-mutCALR antibody clone 61 (antibody, human IgG1, lambda, N297A, V domains shown, human IgG1 N297A variant of clone 6) VH: EVQLVQSGAEVKKPGASVKVSCKVSGYTLTELSMQWVRQAPGKGLEWMGGFDPDAGETMYAEKFQGRLTVTEDTSTDTVYMELSSLRSEDTAVYFCATSPGYDFFDYWGQGTLVTVSS VL: QSALTQPASVSGSPGQSITISCTGTSSDVGGYNYVSWYQQHPGKAPKLMIYEVSNRPSGVSNRFSGSNSGNTATLTINRVEAGDEADYYCQVWDSSNDLLIFGGGTKLTVLG	0.893	0.00369	4.13e+06
anti-mutCALR antibody clone 60 (antibody, human IgG1, lambda, N297A, V domains shown, human IgG1 N297A variant of clone 6) VH: EVQLVQSGAEVKKPGASVKVSCKVSGYTLTELSMQWVRQAPGKGLEWMGGFDPDDGETMYAEKFQGRLTVTEDTSTDTVYMELSSLRSEDTAVYFCATSPGYDFFDYWGQGTLVTVSS VL: QSALTQPASVSGSPGQSITISCTGTSSDVGGYNYVSWYQQHPGKAPKLMIYEVSNRPSGVSNRFSGSNSGNTATLTINRVEAGDEADYYCQVWDSSNDLLIFGGGTKLTVLG	1.15	0.00166	1.44e+06
anti-mutCALR antibody clone 174 (antibody, human IgG1, lambda, N297A, V domains shown) VH: EVQLVQSGAEVKKPGASVKVSCKVSGYTLTELSMQWVRQAPGKGLEWMGGFDPDDAETMYAEKFQGRLTVTEDTSTDTVYMELRSLTSEDTALYFCATSPGYDFFDYWGQGTLVTVSS VL: SYVLTQPPSVSVAPGQTARITCGGSDIGDEIVHWYQQKPGQAPVLVVYDDSDRPSGIPERFSGSNSGNTATLTISRAQAGDEADYYCQVWDSSSDHLIFGGGTKLTVLG	0.526	0.0041	7.8e+06
anti-mutCALR antibody clone 186 (antibody, human IgG1, lambda, N297A, V domains shown, human IgG1 N297A variant of clone 17) VH: EVQLVQSGAEVKKPGASVKVSCKVSGYTLTELSMQWVRQAPGKGLEWMGGFDPDAGETMYAEKFQGRLTVTEDTSTDTVYMELSSLRSEDTAVYFCATSPGYDFFDYWGQGTLVTVSS VL: SYVLTQPPSVSVAPGQTARITCGGSDIGDEIVHWYQQKPGQAPVLVVYDDSDRPSGIPERFSGSNSGNTATLTISRVEAGDEADYYCQVWDSSSDHLIFGGGTKLTVLG	2.86	0.00243	848000
anti-mutCALR antibody clone 185 (antibody, human IgG1, lambda, N297A, V domains shown, human IgG1 N297A variant of clone 17) VH: EVQLVQSGAEVKKPGASVKVSCKVSGYTLTELSMQWVRQAPGKGLEWMGGFDPDDGETMYAEKFQGRLTVTEDTSTDTVYMELSSLRSEDTAVYFCATSPGYDFFDYWGQGTLVTVSS VL: SYVLTQPPSVSVAPGQTARITCGGSDIGDEIVHWYQQKPGQAPVLVVYDDSDRPSGIPERFSGSNSGNTATLTISRVEAGDEADYYCQVWDSSSDHLIFGGGTKLTVLG	0.171	0.000911	5.32e+06
anti-mutCALR antibody clone 189 (antibody, human IgG1, lambda, N297A, V domains shown) VH: EVQLVQSGAEVKKPGASVKVSCKVSGYTLTELSMQWVRQAPGKGLEWMGGFDPDDAETMYAEKFQGRLTVTEDTSTDTVYMELSSLRSEDTAVYFCATSPGYDFFDYWGQGTLVTVSS VL: SYVLTQPPSVSVAPGQTARITCGGSDIGDEIVHWYQQKPGQAPVLVVYDDSDRPSGIPERFSGSNSGNTATLTISRVEAGDEADYYCQVWDSSSDHLIFGGGTKLTVLG	0.422	0.0153	> 1e+07
anti-mutCALR antibody clone 183 (antibody, human IgG1, lambda, N297A, V domains shown) VH: EVQLVQSGAEVKKPGASVKVSCKVSGYTLTELSMQWVRQAPGKGLEWMGGFDPDEGETMYAEKFQGRLTVTEDTSTDTVYMELRSLTSEDTALYFCATSPGYDFFDYWGQGTLVTVSS VL: SYVLTQPPSVSVAPGQTARITCGGSDIGDEIVHWYQQKPGQAPVLVVYDDSDRPSGIPERFSGSNSGNTATLTISRVEAGDEADYYCQVWDSSSDHLIFGGGTKLTVLG	1	0.00124	1.23e+06
anti-mutCALR antibody clone 184 (antibody, human IgG1, lambda, N297A, V domains shown, human IgG1 N297A variant of clone 17) VH: EVQLVQSGAEVKKPGASVKVSCKVSGYTLTELSMQWVRQAPGKGLEWMGGFDPDDAETMYAEKFQGRLTVTEDTSTDTVYMELRSLTSEDTALYFCATSPGYDFFDYWGQGTLVTVSS VL: SYVLTQPPSVSVAPGQTARITCGGSDIGDEIVHWYQQKPGQAPVLVVYDDSDRPSGIPERFSGSNSGNTATLTISRVEAGDEADYYCQVWDSSSDHLIFGGGTKLTVLG	1.57	0.000673	428000
anti-mutCALR antibody clone 182 (antibody, human IgG1, lambda, N297A, V domains shown, human IgG1 N297A variant of clone 17) VH: EVQLVQSGAEVKKPGASVKVSCKVSGYTLTELSMQWVRQAPGKGLEWMGGFDPDSGETMYAEKFQGRLTVTEDTSTDTVYMELRSLTSEDTALYFCATSPGYDFFDYWGQGTLVTVSS VL: SYVLTQPPSVSVAPGQTARITCGGSDIGDEIVHWYQQKPGQAPVLVVYDDSDRPSGIPERFSGSNSGNTATLTISRVEAGDEADYYCQVWDSSSDHLIFGGGTKLTVLG	1.23	0.00692	5.62e+06
anti-mutCALR antibody clone 188 (antibody, human IgG1, lambda, N297A, V domains shown, human IgG1 N297A variant of clone 17) VH: EVQLVQSGAEVKKPGASVKVSCKVSGYTLTELSMQWVRQAPGKGLEWMGGFDPDEGETMYAEKFQGRLTVTEDTSTDTVYMELSSLRSEDTAVYFCATSPGYDFFDYWGQGTLVTVSS VL: SYVLTQPPSVSVAPGQTARITCGGSDIGDEIVHWYQQKPGQAPVLVVYDDSDRPSGIPERFSGSNSGNTATLTISRVEAGDEADYYCQVWDSSSDHLIFGGGTKLTVLG	1.65	0.00121	732000
anti-mutCALR antibody clone 180 (antibody, human IgG1, lambda, N297A, V domains shown, human IgG1 N297A variant of clone 17) VH: EVQLVQSGAEVKKPGASVKVSCKVSGYTLTELSMQWVRQAPGKGLEWMGGFDPDDGETMYAEKFQGRLTVTEDTSTDTVYMELRSLTSEDTALYFCATSPGYDFFDYWGQGTLVTVSS VL: SYVLTQPPSVSVAPGQTARITCGGSDIGDEIVHWYQQKPGQAPVLVVYDDSDRPSGIPERFSGSNSGNTATLTISRVEAGDEADYYCQVWDSSSDHLIFGGGTKLTVLG	0.198	0.127	> 1e+07
anti-mutCALR antibody clone 187 (antibody, human IgG1, lambda, N297A, V domains shown, human IgG1 N297A variant of clone 17) VH: EVQLVQSGAEVKKPGASVKVSCKVSGYTLTELSMQWVRQAPGKGLEWMGGFDPDSGETMYAEKFQGRLTVTEDTSTDTVYMELSSLRSEDTAVYFCATSPGYDFFDYWGQGTLVTVSS VL: SYVLTQPPSVSVAPGQTARITCGGSDIGDEIVHWYQQKPGQAPVLVVYDDSDRPSGIPERFSGSNSGNTATLTISRVEAGDEADYYCQVWDSSSDHLIFGGGTKLTVLG	1.59	0.0163	1e+07
anti-mutCALR antibody clone 181 (antibody, human IgG1, lambda, N297A, V domains shown, human IgG1 N297A variant of clone 17) VH: EVQLVQSGAEVKKPGASVKVSCKVSGYTLTELSMQWVRQAPGKGLEWMGGFDPDAGETMYAEKFQGRLTVTEDTSTDTVYMELRSLTSEDTALYFCATSPGYDFFDYWGQGTLVTVSS VL: SYVLTQPPSVSVAPGQTARITCGGSDIGDEIVHWYQQKPGQAPVLVVYDDSDRPSGIPERFSGSNSGNTATLTISRVEAGDEADYYCQVWDSSSDHLIFGGGTKLTVLG	1.58	0.0209	1e+07
